Biological target: bovine submaxillary mucin, a source of the TAG-72 antigen (bovine)
Assay: binding activity of the Chx-DTPA conjugate; assay not given

## HuCC49 CH2 domain-deleted sc(Fv)2 tetravalent antibody conjugated with the chelator Chx-DTPA
  avidity against conjugated control parent huCC49: 5 to 6 fold

Source: patent US8603473B2
